From PMC12461627, “Locking CBL TKBD in its native conformation presents a novel therapeutic opportunity in mutant CBL-dependent leukemia” (Molecular Therapy, 2025)

B1: unnamed (parent)
chain 1: MTVEEMDSWIKSWDQM
chain 2: PPGTVDKKMVEKCWKLMDKVVRLCQNPKLALKNSPPYILDLLPDTYQHLRTILSRYEGKMETLGENEYFRVFMENLMKKTKQTISLFKEGKERMYEENSQPRRNLTKLSLIFSHMLAELKGIFPSGLFQGDTFRITKADAAEFWRKAFGEKTIVPWKSFRQALHEVHPISSGLEAMALKSTIDLTCNDYISVFEFDIFTRLFQPWSSLLRNWNSLAVTHPGYMAFLTYDEVKARLQKFIHKPGSYIFRLSCTRLGQWAIGYVTADGNILQTIPHNKPLFQALIDGFREGFYLFPDGRNQNPDLTGLCEP

Variants of: B1
Assay: phage ELISA
Conditions: with partner chain of the complex shown;; read off a plot

Variant | response
chain 2 G260E | 0.1 OD at 450 nm
